Test results published in US20040091992A1.

Biological target: Myc tagged Cdc42HsV12 (constitutively active, expressed in microinjected cells) (UniProt P60953)
Assay: cell-based or functional assay

Sequence of Myc tagged Cdc42HsV12 (constitutively active, expressed in microinjected cells) (P60953 other isoform, or with tags, fused parts or gaps): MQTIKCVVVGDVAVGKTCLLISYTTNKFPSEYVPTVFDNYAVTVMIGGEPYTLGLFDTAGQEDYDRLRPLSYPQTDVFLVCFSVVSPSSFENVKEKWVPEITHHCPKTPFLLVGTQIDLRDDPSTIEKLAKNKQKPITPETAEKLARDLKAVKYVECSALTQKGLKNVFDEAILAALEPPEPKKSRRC

- sustained formation of actin enriched filopodia protrusions in co-injected PAE cells (% of the injected cells): > 70
Substance: HA tagged PAK4 (wild type, expressed in cells from the SRalpha vector) (from UniProt O96013 1-591)
